We go through 55 sequences from the supplement of paper PMC9428881.

± gives the standard error.

This data set is described as follows: background-corrected fluorescence of 3'-dye-labeled ssDNA relative to brightest sequence (3'-GCGCG) (fraction); higher = brighter dye fluorescence (less quenching). On the procedure:
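Single-stranded DNA is synthesized in situ on glass microarrays by 5'->3' photolithographic synthesis, with a Cy3 or Cy5 phosphoramidite coupled at the 3' end next to all 1024 permuted pentamers P1-P5. The construct is 5'-T5-(ACGT minus P5..P1 trinucleotides)-T15-P5P4P3P2P1-dye-3'; the dye is a 3' terminal modification, not part of the sequence. Arrays were scanned at 532 nm (Cy3) or 635 nm (Cy5), background from unlabeled oligos was subtracted, and values are averaged over 10 replicate features per array and at least 3 independent syntheses.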

For the sequence “TTTTTGCATCATGCTGATGATTTTTTTTTTTTTTTTGACC [CCAGT]”, the background-corrected fluorescence came to 0.418 ± 0.027 (dye: Cy3 (3' terminal)) and 0.3 ± 0.02 (dye: Cy5 (3' terminal)).
On the same counts, the results for “TTTTTGCATCATGCTGATGCTTTTTTTTTTTTTTTTGACA [ACAGT]” are 0.527 ± 0.019 and 0.411 ± 0.026.
On the same counts, the results for “TTTTTGCATCATGCTGCGCATTTTTTTTTTTTTTTTGAAT [TAAGT]” are 0.558 ± 0.032 and 0.436 ± 0.035.
On the same counts, the results for “TTTTTGCATCATGCTGCTCATTTTTTTTTTTTTTTTGAAG [GAAGT]” are 0.564 ± 0.02 and 0.44 ± 0.024.
“TTTTTGCATCATGCTGCTGATTTTTTTTTTTTTTTTGAAC [CAAGT]”: the background-corrected fluorescence was 0.461 ± 0.024 (dye: Cy3 (3' terminal)) and 0.345 ± 0.021 (dye: Cy5 (3' terminal)).
As to “TTTTTGCATCATGCTGCTGCTTTTTTTTTTTTTTTTGAAA [AAAGT]”, the background-corrected fluorescence is, setting by setting: (dye: Cy3 (3' terminal)) 0.603 ± 0.021; (dye: Cy5 (3' terminal)) 0.522 ± 0.041.
In the case of “TTTTTGCATGAGCAGCAGCATTTTTTTTTTTTTTTTCTTT”, the background-corrected fluorescence amounted to 0.504 ± 0.016 (dye: Cy3 (3' terminal)) and 0.353 ± 0.032 (dye: Cy5 (3' terminal)).
On to “TTTTTGCATGAGCAGCATCATTTTTTTTTTTTTTTTCTTG [GTTCT]”, for which the background-corrected fluorescence came to 0.489 ± 0.023 (dye: Cy3 (3' terminal)) and 0.371 ± 0.032 (dye: Cy5 (3' terminal)).
For “TTTTTGCATGAGCAGCATGATTTTTTTTTTTTTTTTCTTC [CTTCT]”, the background-corrected fluorescence was 0.382 ± 0.043 (dye: Cy3 (3' terminal)) and 0.282 ± 0.018 (dye: Cy5 (3' terminal)).
Take “TTTTTGCATGAGCAGCATGCTTTTTTTTTTTTTTTTCTTA [ATTCT]”: the background-corrected fluorescence (dye: Cy3 (3' terminal)) came to 0.5004 ± 0.0042 and the background-corrected fluorescence (dye: Cy5 (3' terminal)) was 0.373 ± 0.022.
In the case of “TTTTTGCATGAGCATCAGCATTTTTTTTTTTTTTTTCTGT [TGTCT]”, the background-corrected fluorescence by setting is: (dye: Cy3 (3' terminal)) 0.594 ± 0.015; (dye: Cy5 (3' terminal)) 0.433 ± 0.02.
With “TTTTTGCATGAGCATCATCATTTTTTTTTTTTTTTTCTGG [GGTCT]”, the background-corrected fluorescence is 0.563 ± 0.024 (dye: Cy3 (3' terminal)) and 0.43 ± 0.035 (dye: Cy5 (3' terminal)).
Turning to “TTTTTGCATGAGCATCATGATTTTTTTTTTTTTTTTCTGC [CGTCT]”, the background-corrected fluorescence reads like this: (dye: Cy3 (3' terminal)) 0.491 ± 0.029; (dye: Cy5 (3' terminal)) 0.368 ± 0.024.
Turning to “TTTTTGCATGAGCATCATGCTTTTTTTTTTTTTTTTCTGA [AGTCT]”, the background-corrected fluorescence reads like this: (dye: Cy3 (3' terminal)) 0.611 ± 0.018; (dye: Cy5 (3' terminal)) 0.56 ± 0.037.
Consider “TTTTTGCATGAGCATGAGCATTTTTTTTTTTTTTTTCTCT”, for which the background-corrected fluorescence reads like this: (dye: Cy3 (3' terminal)) 0.464 ± 0.014; (dye: Cy5 (3' terminal)) 0.332 ± 0.024.
In the same order, the values of “TTTTTGCATGAGCATGATCATTTTTTTTTTTTTTTTCTCG [GCTCT]” are 0.506 ± 0.02 and 0.376 ± 0.039.
In the same order, the values of “TTTTTGCATGAGCATGATGATTTTTTTTTTTTTTTTCTCC [CCTCT]” are 0.335 ± 0.042 and 0.268 ± 0.019.
On the same counts, the results for “TTTTTGCATGAGCATGATGCTTTTTTTTTTTTTTTTCTCA [ACTCT]” are 0.456 ± 0.019 and 0.348 ± 0.022.
“TTTTTGCATGAGCATGCGCATTTTTTTTTTTTTTTTCTAT [TATCT]”: the background-corrected fluorescence by setting is: (dye: Cy3 (3' terminal)) 0.501 ± 0.027; (dye: Cy5 (3' terminal)) 0.37 ± 0.029.
In the same order, the values of “TTTTTGCATGAGCATGCTCATTTTTTTTTTTTTTTTCTAG [GATCT]” are 0.52 ± 0.027 and 0.401 ± 0.031.
For “TTTTTGCATGAGCATGCTGATTTTTTTTTTTTTTTTCTAC [CATCT]”, the background-corrected fluorescence turned out to be 0.409 ± 0.017 (dye: Cy3 (3' terminal)) and 0.296 ± 0.017 (dye: Cy5 (3' terminal)).
Consider “TTTTTGCATGAGCATGCTGCTTTTTTTTTTTTTTTTCTAA [AATCT]”, for which the background-corrected fluorescence by setting is: (dye: Cy3 (3' terminal)) 0.539 ± 0.023; (dye: Cy5 (3' terminal)) 0.454 ± 0.047.
“TTTTTGCATGATCAGCAGCATTTTTTTTTTTTTTTTCGTT [TTGCT]”: the background-corrected fluorescence is, setting by setting: (dye: Cy3 (3' terminal)) 0.55 ± 0.029; (dye: Cy5 (3' terminal)) 0.417 ± 0.026.
On the same counts, the results for “TTTTTGCATGATCAGCATCATTTTTTTTTTTTTTTTCGTG [GTGCT]” are 0.525 ± 0.015 and 0.441 ± 0.029.
For the sequence “TTTTTGCATGATCAGCATGATTTTTTTTTTTTTTTTCGTC [CTGCT]”, the background-corrected fluorescence was found to be 0.467 ± 0.034 (dye: Cy3 (3' terminal)) and 0.352 ± 0.03 (dye: Cy5 (3' terminal)).
As to “TTTTTGCATGATCAGCATGCTTTTTTTTTTTTTTTTCGTA”, the background-corrected fluorescence turned out to be 0.59 ± 0.023 (dye: Cy3 (3' terminal)) and 0.457 ± 0.043 (dye: Cy5 (3' terminal)).
The sequence “TTTTTGCATGATCATCAGCATTTTTTTTTTTTTTTTCGGT [TGGCT]” yielded a background-corrected fluorescence (dye: Cy3 (3' terminal)) of 0.66 ± 0.028 and a background-corrected fluorescence (dye: Cy5 (3' terminal)) of 0.513 ± 0.035.
With “TTTTTGCATGATCATCATCATTTTTTTTTTTTTTTTCGGG [GGGCT]”, the background-corrected fluorescence by setting is: (dye: Cy3 (3' terminal)) 0.664 ± 0.02; (dye: Cy5 (3' terminal)) 0.558 ± 0.044.
In the same order, the values of “TTTTTGCATGATCATCATGATTTTTTTTTTTTTTTTCGGC [CGGCT]” are 0.546 ± 0.031 and 0.47 ± 0.042.
Take “TTTTTGCATGATCATCATGCTTTTTTTTTTTTTTTTCGGA [AGGCT]”: the background-corrected fluorescence stood at 0.734 ± 0.076 (dye: Cy3 (3' terminal)) and 0.648 ± 0.024 (dye: Cy5 (3' terminal)).
On the same counts, the results for “TTTTTGCATGATCATGAGCATTTTTTTTTTTTTTTTCGCT” are 0.486 ± 0.0071 and 0.392 ± 0.085.
For “TTTTTGCATGATCATGATCATTTTTTTTTTTTTTTTCGCG [GCGCT]”, the background-corrected fluorescence reads like this: (dye: Cy3 (3' terminal)) 0.93 ± 0.023; (dye: Cy5 (3' terminal)) 0.964 ± 0.064.
As to “TTTTTGCATGATCATGATGATTTTTTTTTTTTTTTTCGCC [CCGCT]”, the background-corrected fluorescence by setting is: (dye: Cy3 (3' terminal)) 0.462 ± 0.036; (dye: Cy5 (3' terminal)) 0.337 ± 0.022.
As for “TTTTTGCATGATCATGATGCTTTTTTTTTTTTTTTTCGCA [ACGCT]”, the background-corrected fluorescence (dye: Cy3 (3' terminal)) turned out to be 0.569 ± 0.035 and the background-corrected fluorescence (dye: Cy5 (3' terminal)) came out at 0.434 ± 0.029.
As to “TTTTTGCATGATCATGCGCATTTTTTTTTTTTTTTTCGAT [TAGCT]”, the background-corrected fluorescence by setting is: (dye: Cy3 (3' terminal)) 0.64 ± 0.011; (dye: Cy5 (3' terminal)) 0.441 ± 0.022.
With “TTTTTGCATGATCATGCTCATTTTTTTTTTTTTTTTCGAG [GAGCT]”, the background-corrected fluorescence was 0.616 ± 0.029 (dye: Cy3 (3' terminal)) and 0.478 ± 0.035 (dye: Cy5 (3' terminal)).
In the same order, the values of “TTTTTGCATGATCATGCTGATTTTTTTTTTTTTTTTCGAC [CAGCT]” are 0.448 ± 0.03 and 0.378 ± 0.038.
Turning to “TTTTTGCATGATCATGCTGCTTTTTTTTTTTTTTTTCGAA [AAGCT]”, the background-corrected fluorescence stood at 0.632 ± 0.0073 (dye: Cy3 (3' terminal)) and 0.524 ± 0.043 (dye: Cy5 (3' terminal)).
Turning to “TTTTTGCATGATGAGCAGCATTTTTTTTTTTTTTTTCCTT”, the background-corrected fluorescence came out at 0.435 ± 0.027 (dye: Cy3 (3' terminal)) and 0.351 ± 0.029 (dye: Cy5 (3' terminal)).
Consider “TTTTTGCATGATGAGCATCATTTTTTTTTTTTTTTTCCTG [GTCCT]”, for which the background-corrected fluorescence runs as follows: (dye: Cy3 (3' terminal)) 0.475 ± 0.028; (dye: Cy5 (3' terminal)) 0.366 ± 0.034.
On to “TTTTTGCATGATGAGCATGATTTTTTTTTTTTTTTTCCTC [CTCCT]”, for which the background-corrected fluorescence is 0.351 ± 0.02 (dye: Cy3 (3' terminal)) and 0.266 ± 0.019 (dye: Cy5 (3' terminal)).
For the sequence “TTTTTGCATGATGAGCATGCTTTTTTTTTTTTTTTTCCTA [ATCCT]”, the background-corrected fluorescence is 0.455 ± 0.019 (dye: Cy3 (3' terminal)) and 0.355 ± 0.019 (dye: Cy5 (3' terminal)).
Consider “TTTTTGCATGATGATCAGCATTTTTTTTTTTTTTTTCCGT [TGCCT]”, for which the background-corrected fluorescence runs as follows: (dye: Cy3 (3' terminal)) 0.613 ± 0.021; (dye: Cy5 (3' terminal)) 0.484 ± 0.027.
Consider “TTTTTGCATGATGATCATCATTTTTTTTTTTTTTTTCCGG [GGCCT]”, for which the background-corrected fluorescence came to 0.617 ± 0.0071 (dye: Cy3 (3' terminal)) and 0.539 ± 0.037 (dye: Cy5 (3' terminal)).
As to “TTTTTGCATGATGATCATGATTTTTTTTTTTTTTTTCCGC [CGCCT]”, the background-corrected fluorescence reads like this: (dye: Cy3 (3' terminal)) 0.504 ± 0.022; (dye: Cy5 (3' terminal)) 0.412 ± 0.025.
For the sequence “TTTTTGCATGATGATCATGCTTTTTTTTTTTTTTTTCCGA [AGCCT]”, the background-corrected fluorescence by setting is: (dye: Cy3 (3' terminal)) 0.581 ± 0.026; (dye: Cy5 (3' terminal)) 0.552 ± 0.031.
In the same order, the values of “TTTTTGCATGATGATGAGCATTTTTTTTTTTTTTTTCCCT” are 0.472 ± 0.027 and 0.317 ± 0.026.
Take “TTTTTGCATGATGATGATCATTTTTTTTTTTTTTTTCCCG [GCCCT]”: the background-corrected fluorescence came out at 0.509 ± 0.013 (dye: Cy3 (3' terminal)) and 0.381 ± 0.04 (dye: Cy5 (3' terminal)).
As for “TTTTTGCATGATGATGATGATTTTTTTTTTTTTTTTCCCC [CCCCT]”, the background-corrected fluorescence is 0.33 ± 0.022 (dye: Cy3 (3' terminal)) and 0.243 ± 0.015 (dye: Cy5 (3' terminal)).
In the same order, the values of “TTTTTGCATGATGATGATGCTTTTTTTTTTTTTTTTCCCA [ACCCT]” are 0.441 ± 0.036 and 0.346 ± 0.035.
Regarding “TTTTTGCATGATGATGCGCATTTTTTTTTTTTTTTTCCAT [TACCT]”, the background-corrected fluorescence was 0.477 ± 0.025 (dye: Cy3 (3' terminal)) and 0.344 ± 0.024 (dye: Cy5 (3' terminal)).
Regarding “TTTTTGCATGATGATGCTCATTTTTTTTTTTTTTTTCCAG [GACCT]”, the background-corrected fluorescence runs as follows: (dye: Cy3 (3' terminal)) 0.47 ± 0.02; (dye: Cy5 (3' terminal)) 0.377 ± 0.02.
Regarding “TTTTTGCATGATGATGCTGATTTTTTTTTTTTTTTTCCAC [CACCT]”, the background-corrected fluorescence reads like this: (dye: Cy3 (3' terminal)) 0.379 ± 0.023; (dye: Cy5 (3' terminal)) 0.273 ± 0.016.
For “TTTTTGCATGATGATGCTGCTTTTTTTTTTTTTTTTCCAA [AACCT]”, the background-corrected fluorescence worked out at 0.536 ± 0.038 (dye: Cy3 (3' terminal)) and 0.388 ± 0.025 (dye: Cy5 (3' terminal)).
On the same counts, the results for “TTTTTGCATGATGCGCAGCATTTTTTTTTTTTTTTTCATT [TTACT]” are 0.485 ± 0.03 and 0.359 ± 0.028.
